Broadly, the EC50 is the concentration at which the effect is half-maximal. Higher therefore signals weaker potency. What is called EC50 (read off the curve) is the concentration that produces a half-maximal response. A lower EC50 (read off the curve) goes with greater potency.

The text below walks through data of patent publication US20190083616A1 (UNIVERSITY OF TENESSEE RESEARCH FOUNDATION, published 2019).

One experiment addresses Vκ4Len(1-22) peptide (UniProt P06312). Nature of the experiment: EuLISA, peptide-coated wells, mAb titrated from 100 nM.
Experiment [1] deals with T1, peptope p66 (p5+14 - SVTVVT linker - 11-1F4 12-mer epitope KHYAAFPENLLI).
T1 construct: also called peptide p66; 11-1F4 peptope
T1 peptide: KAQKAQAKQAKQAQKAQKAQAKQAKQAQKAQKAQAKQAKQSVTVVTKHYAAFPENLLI
Nature of the experiment: EuLISA: rVλ6Wil fibrils on the plate, p66 added and washed, murine 11-1F4 titrated 1:2 from 100 nM; 11-1F4 also binds the fibrils themselves at high concentration (FIG. 10).

murine monoclonal antibody 11-1F4: in the experiment with Vκ4Len(1-22) peptide, the EC50 came out at 0.5 nM. That is a sub-nanomolar value.

B1: murine monoclonal antibody 11-1F4 (antibody, V domains shown)
VH: QVQLKESGPGLVAPSQSLSITCTVSGFSLSSYGVSWVRQPPGKGLEWLGVIWGDGSTNYHPNLMSRLSISKDISKSQVLFKLNSLQTDDTATYYCVTLDYWGQGTSVTVSS
VL: DVVMTQTPLSLPVSLGDQASISCRSSQSLVHRNGNTYLHWYLQKPGQSPKLLIYKVSNRFSGVPDRFSGSGSGTDFTLKISRVEAEDLGLYFCFQTTYVPNTFGGGTKLEIK
For B1, the “EC50 (read off the curve)” value in experiment [1] is approximately 0.8 nM.
